Measurements: publication PMC7126439

Columns and labels:
[1] = molecular target: GCN4-pA; experiment: AUC
[2] = molecular target: GCN4-pV; experiment: AUC

Row | Substance | stoichiometry N [1] | stoichiometry N [2]
1 | GCN4-pA (peptide) | 4 | –
2 | GCN4-pV (peptide) | – | 4
